Assay results published in US20150160214A1, “Quantitation of Cellular Adhesion Dynamics Across Immobilized Receptors Under Rheological Shear Flow” (Mayo Foundation for Medical Education and Research, priority 2013, published 2015).

Tests used:
platelet GPIbα = biological target: T1, platelet GPIbα (Homo sapiens, UniProt P07359); assay: Platelet pause times on surface-captured A1 domain variants, parallel plate flow chamber (Table 4, Example 3); format: cell-based; settings: shear rate 1500 s^−1; mean ± std. dev., number of measurements in parentheses; NB = No Binding
T1 construct: endogenous in cells; host or cells: platelets in citrated whole blood of normal healthy volunteer donors
Experimental: The determination and analysis of platelet pause times and instantaneous translocation velocities over surface captured A1 and RCAM A1 was performed as previously described (Tischer:2013). Here, the inventor used the Cellix Mims Evo syringe pump controlled by VenaFluxAssay (www.cellixltd.com). Vena8™ CGS biochips were custom designed with 800 μm width by 80 μm height microchannels bonded to glass slides with a Cu^2+ chelated PEG surface serviced by Microsurfaces Inc. (www.proteinslides.com/histag.html) to which the A1 and RCAM A1 in TBS were captured by the 6×His-Tag at a total concentration of 5 μM. Citrated whole blood was obtained from the informed consent of healthy volunteer donors with approval from the Mayo Clinic Institutional Review Board and 100 μL was perfused over the surface captured A1 domains at 700 s^−1. The shear was increased or decreased in a stepwise manner to measure the dynamics of platelet adhesion at high and low shear. After allowing the flow chamber to equilibrate for 50 s at each shear rate, 1 min movies were recorded at 24 frames per second in phase contrast at 200× magnification with 2×2 pixel binning on a Zeiss AxioCam Mrm camera (6.45 μm/px) attached to a Zeiss Axio Observer.D1 inverted microscope. Tracking analysis was performed using MediaCybernetics ImagePro® Premier (www.mediacy.com/index.aspx?page=IP\_Premier) The distance travelled in the direction of flow was calculated from the coordinate data for each platelet as a function of time using √{square root over ((xt−x0)^2)}, where x0 is the coordinates of a platelet on the first frame of the movie and xt is the coordinate on subsequent frames of the movie. These trajectories were differentiated into instantaneous velocities using a Savitzky-Golay algorithm (Savitzky:1964) with a five data point window size and a second order polynomial implemented into a Mathematica (www.wolfram.com/mathematica) notebook written in our lab. Trajectories were retained for statistical analysis if the platelet was present for ≧1 s and travelled a total distance greater than 1 Distance travelled in pixels (px) was converted to (μm) using 6.45 μm/px*2/200=0.0645 μm/px. Pause times were determined by the amount of time (sec) a platelets velocity was 0±4 px/s≅0±0.23 μm/s, within the noise. Data are reported as mean velocities and pause times attained by individual platelets averaged over all platelets analyzed. Integral analysis of the cumulative pause time histogram gives the survival fraction, equation (24).
The rheological interaction of platelets with A1 domain variants harboring type 2M and type 2B mutations was studied using recently developed flow-chamber methods (19). The A1 domains ([…]) were immobilized on Vena8™ biochips (Cellix, Dublin, Ireland) coated with a Cu^2+-chelated poly-ethylene-glycol surface serviced by MicroSurfaces, Inc. (Englewood, N.J.) via the 6×His-Tag, enabling the preservation of the structural properties of the domain in solution and its concomitant effects on platelet adhesion under rheological shear flow. One-hundred microliters of citrated whole blood, obtained from the informed consent of normal healthy volunteer donors with approval from the Mayo Clinic Institutional Review Board (Rochester, Minn.), was perfused at a shear rate of 800 s^−1 followed by Tris-buffered saline. Platelets translocating on the surface-captured domains were filmed at 24 frames/s for 1 min at logarithmic intervals of the shear rate. Coordinates obtained from tracking analysis of the resulting movies were processed using the inventor recently developed statistical analytics for the quantification of cellular adhesion dynamics across immobilized receptors under rheological shear flow (supra). Biochips lacking the surface-captured A1 domain were completely inert to platelets.

[1] = Irreversible thermal denaturation by CD, intrinsic fluorescence and ANS fluorescence (Example 2); format: physicochemical; settings: 2° Celsius/min
Experimental: The unfolding of disulfide-intact A1 and RCAM A1 was also monitored via CD at 222 nm, intrinsic protein fluorescence at 280 nm/359 nm and ANS fluorescence at 350 nm/495 nm as a function of temperature.
CD thermalscans were recorded between 10 and 95° Celsius at 222 nm with a protein concentration of 1 μM in a 1 cm quartz cell under moderate stirring. Prior to each measurement protein samples were equilibrated at 10° Celsius for 10-15 min in order to obtain a stable baseline. The scanrate for all Thermalscans was 2° Celsius/min. The integration time for each data point was 20 s, the bandwidth 1 nm. All measured CD data were converted into mean molar ellipticities per amino acid residue.
Thermalscans monitoring protein fluorescence were recorded at an emission wavelength of 359 nm after excitation at 280 nm using a protein concentration of 2 μM in a 1 cm quartz cell under moderate stirring. ANS-Thermalscans were recorded at 495 nm after Excitation at 350 nm using 1 μM protein and 100 μM ANS. Prior to any performed thermalscan samples were equilibrated for 10-15 min. The scanrate was 2° Celsius/min. At each temperature between 10 or 20° Celsius and 95° Celsius relative fluorescence intensity was collected for 4 s and averaged.

[2] = determined previously (Auton:2009); cited from earlier work

Substance: A1-1238: Recombinant human vWF A1 domain, amino acids Q1238-P1471, with N-terminal 6×His-Tag, disulfide intact
- Pause Time 1500 s^−1 (s) (platelet GPIbα): 0.67 ± 0.07 (6) s
- T* ([1]; ANS Fluorescence): 64.4 °C
- ΔH* ([1]; ANS Fluorescence): 63.8 kcal/mol
- T* ([1]; Circular Dichroism): 65 °C
- ΔH* ([1]; Circular Dichroism): 65 kcal/mol
- T* ([1]; Intrinsic Fluorescence): 63 °C
- ΔH* ([1]; Intrinsic Fluorescence): 60.7 kcal/mol
- Tm from reversible N<->I urea-temperature phase diagram [2]: 51.1±0.5 ° Celsius
